From PMC8213806

Tests used:
[1] = biological target: TcdB2 (R20292 strain), recombinant full-length, from Bacillus megaterium (Clostridioides difficile (R20292 strain as printed))
[2] = biological target: Repeat1-Fc (CSPG4 Repeat1, residues 410–551, fused to the N-terminus of human IgG1 Fc) (human) (UniProt Q6UVK1); experiment: BLI; Repeat1-Fc (50 nM) immobilised on Anti-hIgG-Fc biosensors, TcdB1 or TcdB2 in solution; 20 mM HEPES, 400 mM NaCl, pH 7.5, 10 mM CaCl2, 0.1% Tween-20, 0.5% BSA; 1:1 binding model
Sequence of Repeat1-Fc (CSPG4 Repeat1, residues 410–551, fused to the N-terminus of human IgG1 Fc) (human) (Q6UVK1 410-551): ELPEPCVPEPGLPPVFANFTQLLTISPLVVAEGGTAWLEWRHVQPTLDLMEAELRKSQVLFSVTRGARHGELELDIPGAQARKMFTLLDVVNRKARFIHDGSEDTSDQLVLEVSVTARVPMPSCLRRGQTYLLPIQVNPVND

Sequence of Repeat1-Fc (CSPG4 Repeat1, residues 410–551, fused to the N-terminus of human IgG1 Fc) (Q6UVK1 410-551): as above

Row | Substance | neutralisation in the cell-rounding assay on HeLa cells, 24 h, Repeat1-Fc at 2 µM; cells kept from rounding [1] | Kd [2] | koff [2] | kon [2]
1 | Repeat1-Fc (CSPG4 Repeat1, residues 410–551, fused to the N-terminus of human IgG1 Fc) (from UniProt Q6UVK1 410-551) (Fc fusion) | 40% |  |  | 
2 | TcdB2 (R20292 strain), recombinant full-length, from Bacillus megaterium (natural protein) |  | 5.4 nM | 4.63e-05 s⁻¹ | 8340 M⁻¹ s⁻¹
